Data published in PMC5115986 (Journal of molecular biology, 2016).

Key:
[1] = target: T1, GST-Dbf4 (budding yeast, UniProt P32325 1-704); experiment: pull-down
T1 sequence (looked up): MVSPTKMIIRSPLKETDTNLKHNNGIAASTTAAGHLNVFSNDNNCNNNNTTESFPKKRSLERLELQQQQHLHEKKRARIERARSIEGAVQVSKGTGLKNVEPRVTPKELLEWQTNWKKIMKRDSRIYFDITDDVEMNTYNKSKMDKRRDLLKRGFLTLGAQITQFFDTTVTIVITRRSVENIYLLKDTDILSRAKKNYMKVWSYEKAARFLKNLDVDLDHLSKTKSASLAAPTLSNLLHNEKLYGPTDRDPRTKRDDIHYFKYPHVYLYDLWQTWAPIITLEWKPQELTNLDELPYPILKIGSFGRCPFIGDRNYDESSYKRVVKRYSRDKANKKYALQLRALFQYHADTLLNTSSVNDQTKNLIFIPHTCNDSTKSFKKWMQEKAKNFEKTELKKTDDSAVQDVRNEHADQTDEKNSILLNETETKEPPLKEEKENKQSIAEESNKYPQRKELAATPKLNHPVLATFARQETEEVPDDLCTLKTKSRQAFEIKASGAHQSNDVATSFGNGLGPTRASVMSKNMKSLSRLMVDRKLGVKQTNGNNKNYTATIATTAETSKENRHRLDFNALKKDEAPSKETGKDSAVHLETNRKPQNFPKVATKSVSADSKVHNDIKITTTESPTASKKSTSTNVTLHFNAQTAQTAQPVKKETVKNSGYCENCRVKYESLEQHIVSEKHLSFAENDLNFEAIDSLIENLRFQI

[2] = target: T2, GST-Cdc45 (budding yeast, UniProt Q08032 1-650); experiment: pull-down
T2 sequence (looked up): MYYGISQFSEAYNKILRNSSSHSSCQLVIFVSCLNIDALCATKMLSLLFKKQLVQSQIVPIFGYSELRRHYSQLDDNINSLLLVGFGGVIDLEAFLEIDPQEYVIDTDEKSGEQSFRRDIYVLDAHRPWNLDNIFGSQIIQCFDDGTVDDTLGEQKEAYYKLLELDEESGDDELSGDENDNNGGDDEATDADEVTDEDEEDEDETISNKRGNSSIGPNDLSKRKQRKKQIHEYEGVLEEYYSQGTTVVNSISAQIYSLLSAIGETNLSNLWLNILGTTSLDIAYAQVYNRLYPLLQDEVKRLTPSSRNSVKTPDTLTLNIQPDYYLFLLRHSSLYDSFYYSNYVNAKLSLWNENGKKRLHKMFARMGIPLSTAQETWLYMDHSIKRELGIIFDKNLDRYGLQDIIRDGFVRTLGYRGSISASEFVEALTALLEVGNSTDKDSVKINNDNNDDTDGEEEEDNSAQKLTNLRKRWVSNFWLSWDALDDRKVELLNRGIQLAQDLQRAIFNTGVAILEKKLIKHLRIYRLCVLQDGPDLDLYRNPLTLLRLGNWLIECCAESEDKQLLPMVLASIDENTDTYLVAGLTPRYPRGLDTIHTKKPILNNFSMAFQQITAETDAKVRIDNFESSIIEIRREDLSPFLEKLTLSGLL

Binder | binding result [1] | binding result [2]
PKA-Mcm10 (wild-type), radiolabeled (natural protein, Saccharomyces cerevisiae, UniProt P32354 1-571, looked up, 32P label put on the PKA tag by protein kinase A with [gamma-32P]-ATP) MNDPREILAVDPYNNITSDEEDEQAIARELEFMERKRQALVERLKRKQEFKKPQDPNFEAIEVPQSPTKNRVKVGSHNATQQGTKFEGSNINEVRLSQLQQQPKPPASTTTYFMEKFQNAKKNEDKQIAKFESMMNARVHTFSTDEKKYVPIITNELESFSNLWVKKRYIPEDDLKRALHEIKILRLGKLFAKIRPPKFQEPEYANWATVGLISHKSDIKFTSSEKPVKFFMFTITDFQHTLDVYIFGKKGVERYYNLRLGDVIAILNPEVLPWRPSGRGNFIKSFNLRISHDFKCILEIGSSRDLGWCPIVNKKTHKKCGSPINISLHKCCDYHREVQFRGTSAKRIELNGGYALGAPTKVDSQPSLYKAKGENGFNIIKGTRKRLSEEEERLKKSSHNFTNSNSAKAFFDEKFQNPDMLANLDNKRRKIIETKKSTALSRELGKIMRRRESSGLEDKSVGERQKMKRTTESALQTGLIQRLGFDPTHGKISQVLKSSVSGSEPKNNLLGKKKTVINDLLHYKKEKVILAPSKNEWFKKRSHREEVWQKHFGSKETKETSDGSASDLEII | binds | 
PKA-Mcm10-m2,3,4 (Mcm10-K216E-N313E-K314E), radiolabeled (natural protein, Saccharomyces cerevisiae, UniProt P32354 1-571, looked up, 32P label put on the PKA tag by protein kinase A with [gamma-32P]-ATP) MNDPREILAVDPYNNITSDEEDEQAIARELEFMERKRQALVERLKRKQEFKKPQDPNFEAIEVPQSPTKNRVKVGSHNATQQGTKFEGSNINEVRLSQLQQQPKPPASTTTYFMEKFQNAKKNEDKQIAKFESMMNARVHTFSTDEKKYVPIITNELESFSNLWVKKRYIPEDDLKRALHEIKILRLGKLFAKIRPPKFQEPEYANWATVGLISHESDIKFTSSEKPVKFFMFTITDFQHTLDVYIFGKKGVERYYNLRLGDVIAILNPEVLPWRPSGRGNFIKSFNLRISHDFKCILEIGSSRDLGWCPIVEEKTHKKCGSPINISLHKCCDYHREVQFRGTSAKRIELNGGYALGAPTKVDSQPSLYKAKGENGFNIIKGTRKRLSEEEERLKKSSHNFTNSNSAKAFFDEKFQNPDMLANLDNKRRKIIETKKSTALSRELGKIMRRRESSGLEDKSVGERQKMKRTTESALQTGLIQRLGFDPTHGKISQVLKSSVSGSEPKNNLLGKKKTVINDLLHYKKEKVILAPSKNEWFKKRSHREEVWQKHFGSKETKETSDGSASDLEII | binds | binds
